From patent US20150150156, “METHODS AND COMPOSITIONS FOR REDUCING GENE EXPRESSION IN PLANTS” (The Regents of the University of California, published 2015) come the findings set out here.

In data set [1] the target is T1, SUVR5 zinc finger domain (aa 720-866) (Arabidopsis thaliana, UniProt O64827 SEQ:1-147).
T1 sequence: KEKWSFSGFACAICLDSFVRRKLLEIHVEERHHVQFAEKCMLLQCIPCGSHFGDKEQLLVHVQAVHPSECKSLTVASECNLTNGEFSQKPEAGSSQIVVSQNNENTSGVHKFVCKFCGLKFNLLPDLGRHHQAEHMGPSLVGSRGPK
Briefly: EMSA; specificity control; specificity stated as confirmed by EMSA, gel only in figure. Particulars: tags: GST fusion (pDEST15). A general note: Mobility shift assays separate free from complexed probe on a gel.

Data set [2] concerns the target T1, SUVR5 zinc finger domain (aa 720-866). Briefly: EMSA; 100, 250, 500 ng protein; 12% glycerol, 20 mM Tris-HCl pH 7.5, 50 mM KCl, 1 mM MgCl2, 1 mM DTT. Particulars: tags: GST fusion (pDEST15).

B1: unspecific probe (dsDNA)
DNA 1: ACCAAGCAACACACCCCGT
DNA 2: ACGGGGTGTGTTGCTTGGT
Take B1: the binding result in data set [1] was “no binding”.

B2: specific probe (dsDNA)
DNA 1: GTAGAATACTAGTTGATAAC
DNA 2: GTTATCAACTAGTATTCTAC
In the case of B2, the binding result in data set [2] was “binds”.
